Results from PMC8395244, “The Oxoglutarate Binding Site and Regulatory Mechanism Are Conserved in Ammonium Transporter Inhibitors GlnKs from Methanococcales” (International Journal of Molecular Sciences, 2021).

Target: the molecule itself
Assay: crystal structure; sitting drop at 18 °C; crystallised with or without 2 mM ATP, 2 mM 2OG and 2 mM MgCl2; solved by molecular replacement with PDB 2J9D

B1: GlnK1 from Methanocaldococcus jannaschii without a C-terminal tag (MjGlnK1^woT) (natural protein)
chain: MKKVEAIIRPEKLEIVKKALSDAGYVGMTVSEVKGRGVQGGIVERYRGREYIVDLIPKVKIELVVKEEDVDNVIDIICENARTGNPGDGKIFVIPVERVVRVRTKEEGKEAL
notes: GlnK1, PII-family protein, of Methanocaldococcus jannaschii strain DSM 2661; codon-optimised synthetic gene cloned NdeI/XhoI in pET-24b(+) with a stop codon upstream of the XhoI site, so without a tag; Produced and crystallised without a tag; the crystals came from the gel filtration pool that eluted at 66 mL; also called MjGlnK1^woT-Mg-ATP/2OG; MjGlnK1 with ATP, Mg and 2OG; source: E. coli …
stoichiometry N: 3
